Tests used:
Conditions in all cases: both partners purified
[1] = molecular target: T1, GAPC1-Flag (cytosolic glyceraldehyde-3-phosphate dehydrogenase 1) (Arabidopsis, UniProt P25858 1-338); assay: co-IP; GAPC1-Flag or GAPC2-Flag purified from Arabidopsis mixed with purified NF-YC10-6xHis; IP with anti-Flag antibody and Protein A-agarose, overnight at 4 °C, buffer A (20 mM NaH2PO4 pH 8.0, 150 mM NaCl); blot with anti-6xHis antibody
T1 construct: Cytosolic glyceraldehyde-3-phosphate dehydrogenase GAPC1 of Arabidopsis; CaMV-35S promoter; source: Arabidopsis overexpressing GAPC1-Flag, purified with an anti-Flag antibody and Protein A-agarose

[2] = molecular target: T2, GAPC2-Flag (cytosolic glyceraldehyde-3-phosphate dehydrogenase 2) (Arabidopsis, UniProt Q9FX54 1-338); assay: as above
T2 construct: Cytosolic glyceraldehyde-3-phosphate dehydrogenase GAPC2 of Arabidopsis; CaMV-35S promoter; source: Arabidopsis overexpressing GAPC2-Flag, purified with an anti-Flag antibody and Protein A-agarose

[3] = molecular target: T3, GAPC2-6xHis (Arabidopsis, UniProt Q9FX54 1-338); assay: co-IP; purified GAPC2-6xHis or GAPC2mut’-6xHis mixed with NF-YC10-6xHis-STREP; IP with anti-STREP antibody, blot with anti-6xHis antibody
T3 construct: Cytosolic glyceraldehyde-3-phosphate dehydrogenase GAPC2 of Arabidopsis; source: purified
T3 sequence (Q9FX54 whole entry): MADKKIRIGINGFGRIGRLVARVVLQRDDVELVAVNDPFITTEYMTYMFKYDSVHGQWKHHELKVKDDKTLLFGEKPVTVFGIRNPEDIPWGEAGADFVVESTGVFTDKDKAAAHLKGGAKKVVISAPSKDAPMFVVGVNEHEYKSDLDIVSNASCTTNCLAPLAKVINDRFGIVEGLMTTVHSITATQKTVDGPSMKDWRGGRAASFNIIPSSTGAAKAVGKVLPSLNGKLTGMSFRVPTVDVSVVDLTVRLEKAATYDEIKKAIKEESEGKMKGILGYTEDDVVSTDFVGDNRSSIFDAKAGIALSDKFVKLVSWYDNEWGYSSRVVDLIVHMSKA

T1 sequence (P25858 whole entry): as the sequence (Q9FX54 whole entry) above, with H61N, V65I, D68E, G92A, F98Y, S227A, M274L counted along it
T2 sequence (Q9FX54 whole entry): as the sequence (Q9FX54 whole entry) above

| binding result [1] | binding result [2] | binding result [3] | Binder |
| --- | --- | --- | --- |
| binds | binds |  | NF-YC10-6xHis (natural protein, Arabidopsis, UniProt Q58CM8 1-195, looked up, Nuclear factor Y subunit C10, cloned from Arabidopsis; also called recombinant NF-YC10) MRRPKSSHVRMEPVAPRSHNTMPMLDQFRSNHPETSKIEGVSSLDTALKVFWNNQREQLGNFAGQTHLPLSRVRKILKSDPEVKKISCDVPALFSKACEYFILEVTLRAWMHTQSCTRETIRRCDIFQAVKNSGTYDFLIDRVPFGPHCVTHQGVQPPAEMILPDMNVPIDMDQIEEENMMEERSVGFDLNCDLQ |
|  |  | binds | NF-YC10-6xHis-STREP (natural protein, Arabidopsis, UniProt Q58CM8 1-195, looked up, Nuclear factor Y subunit C10 of Arabidopsis) MRRPKSSHVRMEPVAPRSHNTMPMLDQFRSNHPETSKIEGVSSLDTALKVFWNNQREQLGNFAGQTHLPLSRVRKILKSDPEVKKISCDVPALFSKACEYFILEVTLRAWMHTQSCTRETIRRCDIFQAVKNSGTYDFLIDRVPFGPHCVTHQGVQPPAEMILPDMNVPIDMDQIEEENMMEERSVGFDLNCDLQ |

Reference: PMC7351759, “Nuclear moonlighting of cytosolic glyceraldehyde-3-phosphate dehydrogenase regulates Arabidopsis response to heat stress” (Nature Communications, 2020)
